Laboratory results as given in US20240368668A1, “SUBSTRATES AND BIOMARKERS OF ADAMTS7” (The Broad Institute, Inc., priority 2021, published 2024).
Square brackets hold non-standard residues; d marks the D form. Ends that are not written are not given here.

Biological target: T1, mouse ADAMTS7 (Mus musculus, UniProt Q68SA9)
T1 construct: Full-length mouse Adamts7 1-1857 (Uniprot Q68SA9, WT or E373Q catalytic mutant); expressed in transfected cells; host or cells: Human Coronary Artery Smooth Muscle Cells (HCA-SMC, Lonza), adenovirus 50 MOI
T1 sequence (Q68SA9 221-1657): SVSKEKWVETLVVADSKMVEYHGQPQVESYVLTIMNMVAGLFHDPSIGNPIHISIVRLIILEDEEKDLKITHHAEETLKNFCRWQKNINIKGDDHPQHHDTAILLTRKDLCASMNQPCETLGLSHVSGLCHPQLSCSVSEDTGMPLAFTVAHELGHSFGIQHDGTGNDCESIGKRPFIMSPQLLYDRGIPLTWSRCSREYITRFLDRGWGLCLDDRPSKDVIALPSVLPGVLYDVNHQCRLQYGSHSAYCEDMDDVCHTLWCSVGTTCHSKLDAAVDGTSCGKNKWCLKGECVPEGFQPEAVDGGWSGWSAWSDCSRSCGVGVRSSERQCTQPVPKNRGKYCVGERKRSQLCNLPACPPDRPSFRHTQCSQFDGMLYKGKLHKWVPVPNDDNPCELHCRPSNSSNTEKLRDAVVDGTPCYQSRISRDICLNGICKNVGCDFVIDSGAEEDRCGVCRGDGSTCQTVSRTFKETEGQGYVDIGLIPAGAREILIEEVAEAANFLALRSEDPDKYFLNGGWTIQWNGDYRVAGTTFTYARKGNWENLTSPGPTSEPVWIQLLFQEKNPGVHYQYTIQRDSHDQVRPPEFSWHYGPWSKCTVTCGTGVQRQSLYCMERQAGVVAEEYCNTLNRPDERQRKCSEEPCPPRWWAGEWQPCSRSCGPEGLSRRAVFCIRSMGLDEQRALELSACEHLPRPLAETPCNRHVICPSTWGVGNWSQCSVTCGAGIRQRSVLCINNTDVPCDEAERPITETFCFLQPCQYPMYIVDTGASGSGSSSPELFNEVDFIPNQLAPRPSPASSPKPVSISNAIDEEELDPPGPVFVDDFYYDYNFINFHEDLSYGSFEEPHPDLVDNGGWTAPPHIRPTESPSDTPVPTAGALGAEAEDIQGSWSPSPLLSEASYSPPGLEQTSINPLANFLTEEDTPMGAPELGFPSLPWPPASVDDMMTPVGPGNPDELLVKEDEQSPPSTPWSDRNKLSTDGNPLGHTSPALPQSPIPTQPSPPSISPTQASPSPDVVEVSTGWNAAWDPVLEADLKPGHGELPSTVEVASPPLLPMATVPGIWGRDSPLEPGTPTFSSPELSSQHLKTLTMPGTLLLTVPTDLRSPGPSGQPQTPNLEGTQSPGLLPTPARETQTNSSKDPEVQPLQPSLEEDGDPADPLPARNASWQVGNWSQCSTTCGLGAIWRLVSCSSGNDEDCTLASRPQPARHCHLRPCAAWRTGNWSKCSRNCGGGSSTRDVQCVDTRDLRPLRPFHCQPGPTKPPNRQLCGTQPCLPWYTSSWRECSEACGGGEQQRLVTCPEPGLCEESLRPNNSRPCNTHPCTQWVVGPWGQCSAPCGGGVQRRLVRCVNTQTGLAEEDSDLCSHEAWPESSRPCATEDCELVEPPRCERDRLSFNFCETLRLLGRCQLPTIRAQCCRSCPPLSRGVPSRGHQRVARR
Experiment: TMT10 TAILS N-terminomics, HUVEC experiment (process replicates, trypsin/AspN digest)
Assay type: cell-based, human
Settings: HUVEC TAILS HC; log fold change of N-terminal peptide, Ad-mADAMTS7 WT over Luc
Method in brief: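 Full-length mouse ADAMTS7 (WT or E373Q mutant, C-terminal 3xFLAG) or luciferase was transduced via adenovirus, 50 MOI, into HCA-SMC (SMC1, SMC2) or HUVEC. SMC1: pooled media, technical triplicates 400 ug; SMC2: process triplicates 300 ug; HUVEC: process triplicates 200 ug, bFGF2 10 ng/ml.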

| Substance | logFC.mWT.over.Luc |
| --- | --- |
| ECM1_108 (QEAVPLQK; listed as Homo sapiens) | 2.21 |
| EFEMP1_125_ (VAGPEMQTGR; listed as Homo sapiens) | 2.34 |
| ERAP2_718 (ISENLKR; listed as Homo sapiens) | 5.05 |
| EWSR1_87 (YSQPVQGYGTGAY; listed as Homo sapiens) | 1.10 |
| FN1_34 ([code q]QMVQPQSPVAVSQSKPGCY; not fully specified (residue 3); listed as Homo sapiens) | 1.37 |
| FN1_35 ([code q]MVQPQSPVAVSQSKPGCY; not fully specified (residue 2); listed as Homo sapiens) | 2.31 |
| FN1_293 (VYQPQPHPQPPPYGHCVT; listed as Homo sapiens) | 0.96 |
| FN1_607 (SSSGPVEVFIT; listed as Homo sapiens) | 2.31 |
| FN1_1144 (TPGVEYVYTIQVLR; listed as Homo sapiens) | 1.43 |
| FN1_1780 (LQGLRPGSEYTVSVVALH; listed as Homo sapiens) | 1.80 |
| FN1_1805 (LIGTQSTAIPAPT; listed as Homo sapiens) | 1.47 |
| FN1_2113 (FVTHPGY; listed as Homo sapiens) | 1.05 |
| FSTL1_290 (LQKHQETA; listed as Homo sapiens) | 2.34 |
| LOX_125 (FQAGYSTSR; listed as Homo sapiens) | 3.82 |
